Legend:
hCD63.mmh (human) = hCD63.mmh (human) (UniProt P08962); test: SPR (Biacore) kinetics, mAb captured, hCD63.mmh as analyte
hAPLP2.mmh (human) = hAPLP2.mmh (human) (UniProt Q06481); test: SPR (Biacore) kinetics, mAb captured, hAPLP2.mmh as analyte
hFGFR3b.mmh (human) = hFGFR3b.mmh (human) (UniProt P22607); test: SPR (Biacore) kinetics, mAb captured, hFGFR3b.mmh as analyte
[1] = molecular target: human FGFR1c and human KLB co-expressed on HEK293 cells (human) (UniProt P11362); test: cell-based or functional assay
Sequence of UniProt P11362 (P11362 22-376): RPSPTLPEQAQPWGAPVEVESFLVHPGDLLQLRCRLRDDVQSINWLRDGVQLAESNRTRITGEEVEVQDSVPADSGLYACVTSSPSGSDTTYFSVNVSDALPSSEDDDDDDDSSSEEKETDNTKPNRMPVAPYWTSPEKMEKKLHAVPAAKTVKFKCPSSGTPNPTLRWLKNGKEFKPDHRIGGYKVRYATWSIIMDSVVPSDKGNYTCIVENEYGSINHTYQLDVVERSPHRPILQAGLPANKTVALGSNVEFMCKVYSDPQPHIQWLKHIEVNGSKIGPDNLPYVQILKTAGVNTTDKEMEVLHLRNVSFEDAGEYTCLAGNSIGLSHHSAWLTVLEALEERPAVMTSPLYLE

hKLB.HA.6×His (human) = hKLB.HA.6×His (human) (UniProt Q86Z14); test: SPR (Biacore), antibody captured on anti-human Fc (REGN2567) CM5 chip, hKLB.HA.6xHis injected, 25 C, 1:1 fit
hFGFR1c_V5_6×His (human) = hFGFR1c_V5_6×His (human) (UniProt P11362); test: SPR (Biacore), antibody captured on anti-human Fc (REGN2567) CM5 chip, hFGFR1c_V5_6xHis injected, 25 C, 1:1 fit

REGN1945 (antibody) gave a 100 nM Antigen Bound (RU) (hCD63.mmh (human)) of 0.5 RU, a 100 nM Antigen Bound (RU) (hAPLP2.mmh (human)) of -0.5 RU and a 100 nM Antigen Bound (RU) (hFGFR3b.mmh (human)) of 1.8 RU.

Work on REGN4304 (bispecific antibody) yielded a % Act, SRE-luciferase reporter [1] of 42% and an agonist activity relative to hFGF21, SRE-luciferase reporter [1] of 30%.

Substance REGN4366 (bispecific antibody) has a % activation normalized against soluble FGF21, SRE-luciferase reporter [1] of 19%, an agonist activity relative to hFGF21, SRE-luciferase reporter [1] of 30% and a 100 nM Antigen Bound (RU) (hKLB.HA.6×His (human)) of 411 RU. The Kd (hKLB.HA.6×His (human)) was 25.5 nM, the koff (hKLB.HA.6×His (human)) was 0.0122 s⁻¹ and the kon (hKLB.HA.6×His (human)) was 476000 M⁻¹ s⁻¹. The 100 nM Antigen Bound (RU) (hFGFR1c_V5_6×His (human)) was 50 RU, the Kd (hFGFR1c_V5_6×His (human)) was 539 nM and the koff (hFGFR1c_V5_6×His (human)) was 0.0247 s⁻¹. For the same substance, the kon (hFGFR1c_V5_6×His (human)) was 45900 M⁻¹ s⁻¹.

“Recombinant human FGF21 with 6×His tag (from UniProt Q9NSA1 29-209) (ligand)” was tested, and the % Act, SRE-luciferase reporter [1] was 100%, the % Activity of (FGF21), SRE-luciferase reporter [1] was 100% and the EC50 (M), SRE-luciferase reporter [1] was 3.4e-09 M.

— patent US20210130477A1
